Test results as given in the Human Domainome abundance scans (Beltran et al. 2025).
± gives the uncertainty stated by the source.

B1: Ankyrin-3, residues 4094 to 4171; numbered along this chain, Q12955 (parent)
chain: MAIVADHLGLSWTELARELNFSVDEINQIRVENPNSLISQSFMLLKKWVTRDGKNATTDALTSVLTKINRIDIVTLLE
B2: 3'-5' exoribonuclease 1, residues 65 to 114; numbered along this chain, Q8IV48 (parent)
chain: VYKEIAITNGCINRMSKEELRAKLSEFKLETRGVKDVLKKRLKNYYKKQK

Variants of: B1
Assay: abundance fitness (aPCA) (normalised: wild type 0, dead -1); higher = more abundant; growth selection in yeast, the domain comes from the species named
Details: Homo sapiens

Abundance fitness of substitutions, site by site:
L77: M -0.022 ± 0.12, W -0.518 ± 0.077, R -0.93 ± 0.13, I -0.293 ± 0.22, Q -0.805 ± 0.23, P -0.768 ± 0.14, G -0.68 ± 0.11, H -0.742 ± 0.23

Variants of: B2
Assay: as above
Details: Homo sapiens

Abundance fitness, by site and new letter:
G10: C -0.23 ± 0.04, I -0.34 ± 0.07, K -0.112 ± 0.044, E -0.155 ± 0.046, F -0.323 ± 0.043, A -0.118 ± 0.035, H -0.18 ± 0.053
I7: C -0.164 ± 0.039, V -0.091 ± 0.037, L 0.019 ± 0.035, K -0.131 ± 0.049, E -0.175 ± 0.051, A -0.097 ± 0.04, P -0.067 ± 0.041, F -0.198 ± 0.047, H -0.166 ± 0.057, S -0.142 ± 0.037, M -0.016 ± 0.042, W -0.287 ± 0.037, R -0.178 ± 0.033, N -0.17 ± 0.058, G -0.13 ± 0.034, D -0.171 ± 0.051, Q -0.141 ± 0.05, Y -0.14 ± 0.048, T -0.1 ± 0.056
N9: T -0.12 ± 0.042, E -0.241 ± 0.062, K 0.066 ± 0.055, L -0.127 ± 0.038, F -0.091 ± 0.054, V -0.092 ± 0.043, M 0.036 ± 0.053, Q -0.174 ± 0.061, P 0.015 ± 0.045, W -0.331 ± 0.044, S -0.067 ± 0.037, D -0.244 ± 0.06, C -0.047 ± 0.041, H -0.066 ± 0.052, A -0.033 ± 0.043
K3: M -0.287 ± 0.049, L -0.331 ± 0.042, N 0.058 ± 0.07, V -0.294 ± 0.044, I -0.336 ± 0.06, T -0.081 ± 0.046, E 0.012 ± 0.064, A -0.089 ± 0.043, W -0.509 ± 0.052, Q -0.035 ± 0.061, G -0.05 ± 0.041, C -0.145 ± 0.057, Y -0.251 ± 0.08, D -0.192 ± 0.072, S -0.06 ± 0.039, F -0.34 ± 0.061, H -0.055 ± 0.064, R -0.131 ± 0.035
T8: E -0.24 ± 0.049, D -0.274 ± 0.052, Q -0.199 ± 0.048, R -0.174 ± 0.036, K -0.07 ± 0.048, H -0.268 ± 0.049, S -0.019 ± 0.039, F -0.472 ± 0.049, Y -0.49 ± 0.057, W -0.513 ± 0.049, P -0.069 ± 0.042, C -0.29 ± 0.054, L -0.388 ± 0.037, M -0.161 ± 0.053, G -0.215 ± 0.037
I5: P -0.003 ± 0.043, W -0.225 ± 0.056, H -0.006 ± 0.042, S -0.004 ± 0.036, Y -0.029 ± 0.044, N -0.004 ± 0.045, R -0.101 ± 0.039, D 0.026 ± 0.049, T 0.066 ± 0.043, M 0.052 ± 0.056, Q 0.041 ± 0.057, K -0.042 ± 0.056, E -0.044 ± 0.092, A 0.007 ± 0.041, L -0.051 ± 0.038, G 0.025 ± 0.046, F -0.065 ± 0.048, V -0.037 ± 0.04
A6: P 0.007 ± 0.063, G -0.084 ± 0.21, I 0.019 ± 0.082, D -0.183 ± 0.43, H 0.022 ± 0.09, L -0.082 ± 0.07, Q -0.179 ± 0.11, S -0.075 ± 0.063, C -0.172 ± 0.13, N -0.003 ± 0.063, Y -0.008 ± 0.09, W -0.261 ± 0.16, E -0.092 ± 0.14, M -0.096 ± 0.11, V 0.011 ± 0.12, F -0.078 ± 0.077
V1: T -0.122 ± 0.12, R -0.37 ± 0.093, I -0.025 ± 0.034, N 0.093 ± 0.15, Q -0.369 ± 0.15, L -0.047 ± 0.061, G 0.002 ± 0.044, K -0.043 ± 0.43, D -0.078 ± 0.054, Y -0.083 ± 0.12, M -0.065 ± 0.081, C -0.072 ± 0.071, F -0.104 ± 0.058, S -0.038 ± 0.079, W -0.102 ± 0.074
E4: Q -0.085 ± 0.061, Y -0.164 ± 0.053, N -0.057 ± 0.056, I -0.287 ± 0.063, L -0.334 ± 0.041, M -0.144 ± 0.05, R -0.353 ± 0.036, D 0.003 ± 0.045, H -0.173 ± 0.053, C -0.161 ± 0.05, T -0.06 ± 0.047, F -0.214 ± 0.058, P -0.107 ± 0.051, W -0.229 ± 0.047, G -0.093 ± 0.036, S -0.077 ± 0.039, K -0.251 ± 0.056, A -0.113 ± 0.038
Y2: H 0.01 ± 0.061, G 0.069 ± 0.047, N 0.067 ± 0.062, V 0.021 ± 0.046, R -0.072 ± 0.045, L -0.052 ± 0.043, C 0.013 ± 0.062, M 0.012 ± 0.065, Q 0.076 ± 0.076, I 0.004 ± 0.052, S 0.028 ± 0.044, F -0.053 ± 0.054, A 0.006 ± 0.052, P 0.046 ± 0.061, D 0.1 ± 0.07, E 0.048 ± 0.075, K 0.041 ± 0.064, W -0.069 ± 0.083
